PMC5380708, “Optimized synthesis of novel prenyl ferulate performed by feruloyl esterases from Myceliophthora thermophila in microemulsions” (Applied Microbiology and Biotechnology, 2017)

B1: MtFae1a (Thermothelomyces thermophilus ATCC 42464) (protein)
chain: ASLQEVTEFGDNPTNIQMYIYVPDQLDTNPPVIVALHPCGGSAQQWFSGTQLPSYADDNGFILIYPSTPHMSNCWDIQNPDTLTHGQGGDALGIVSMVNYTLDKHSGDSSRVYAMGFSSGGMMTNQLAGSYPDVFEAGAVYSGVAFGCAAGAESATPFSPNQTCAQGLQKTAQEWGDFVRNAYAGYTGRRPRMQIFHGLEDTLVRPQCAEEALKQWSNVLGVELTQEVSGVPSPGWTQKIYGDGTQLQGFFGQGIGHQSTVNEQQLLQWFGLI
notes: secreted from Pichia pastoris X33, glycosylated

Legend:
[1] = tested on: T1, C=COC(=O)/C=C/c1ccc(O)c(OC)c1; experiment: transesterification rate by HPLC, nonlinear Michaelis-Menten fit; type: biochemical, Thermothelomyces thermophilus; conditions: acyl donor, 200 mM prenol, n-hexane:t-butanol:100 mM MOPS-NaOH pH 6.0 19.8:74.7:5.5 v/v/v microemulsion, 40 °C, 8 h, error = SE
T1 construct: secreted, over-expressed in low-background M. thermophila C1 host
Description: transesterification rate by HPLC, nonlinear Michaelis-Menten fit on FaeA2

[2] = substrate: C=COC(=O)/C=C/c1ccc(O)c(OC)c1; experiment: as above; type: biochemical, Thermothelomyces thermophilus; conditions: acyl donor, 200 mM prenol, n-hexane:t-butanol:100 mM MOPS-NaOH pH 6.0 53.4:43.4:3.2 v/v/v microemulsion, 40 °C, 8 h, error = SE
Description: transesterification rate by HPLC, nonlinear Michaelis-Menten fit on MtFae1a

| Molecule | Km [1] | Km [2] |
| --- | --- | --- |
| FaeA2 (Thermothelomyces thermophilus) | 46.5 (18.1) mM | – |
| B1 | – | 81.2 (22.3) mM |
